The values that follow come from the supplement of paper PMC10567573.

A short description of the data set: protein stability index of a GFP-peptide fusion (GPS, HEK-293T) (PSI 1-6); higher = more stable.
Where [1] appears, read: treatment: DMSO, c terminus: a fixed tail appended.
Where [2] appears, read: treatment: MLN4924 1 uM, 8 h, c terminus: a fixed tail appended.

± gives the standard deviation.
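Note: 24-mer peptide tiles fused after GFP, lentivirally expressed, FACS-sorted into six equal bins by GFP/DsRed ratio, decoded by Illumina sequencing, PSI is the read-weighted mean bin number.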

Consider IIPRTVIDGLDLLKKEHPGARDGI [SMG5], for which the protein stability index is, setting by setting: under setting [1], 3.2 ± 0.31; under setting [2], 3.39 ± 0.23.
For IIPTPDEEEKILRVKLEEDPDGEE [ZNF24] the same measures were 5.44 ± 0.4 and 5.52 ± 0.57.
On the same counts, the results for IITQLEDSRRVTKENSHQVKEELS [TRIM63] are 4.28 ± 0.35 and 4.39 ± 0.26.
On the same counts, the results for IKTTLRELLVYIVFLVDICLLTYG [PKD2L1] are 2.98 ± 0.45 and 2.93 ± 0.53.
Regarding ILEHAHRGEQTTSQVSWEQDLKLF [FCHSD1], the protein stability index is 3.43 ± 0.44 under setting [1] and 3.53 ± 0.68 under setting [2].
For the sequence ILHMNGSQSSTYRGTYEQDGRFEK [ZNF396], the protein stability index runs as follows: under setting [1], 2.86 ± 0.41; under setting [2], 3.36 ± 0.14.
Regarding ILRKLPQQREKLSLIRKHAQTFIA [CCND2], the protein stability index turned out to be 2.3 ± 0.14 under setting [1] and 2.42 ± 0.41 under setting [2].
For INRVSTCYSEEITVCGDLHGQLDD [PPEF2] the same measures were 4.24 ± 0.33 and 3.96 ± 0.27.
On the same counts, the results for INVSKGINHLLKSPFSVHPKTGRI [PRIM1] are 2.62 ± 0.5 and 2.65 ± 0.37.
For IRCRHPPPGSHLLYAKMIQKLADL [VDR] the same measures were 2.37 ± 0.33 and 2.23 ± 0.13.
On to IRYQSFNNQSDLEKEMQKMNPYKI [PRIM1], for which the protein stability index is 3.07 ± 0.13 under setting [1] and 3.26 ± 0.28 under setting [2].
ITPWTPSPSEKNSSFTWSVPSSGY [SMTNL2] gave a protein stability index under setting [1] of 2.72 ± 0.3 and a protein stability index under setting [2] of 2.75 ± 0.34.
On the same counts, the results for IVAVLCYINLLNYMDRFTVAGVLP [SPNS1] are 3.23 ± 0.3 and 3.45 ± 0.14.
On the same counts, the results for IVETVCIVWFSFEFVVRCFACPSQ [KCNA4] are 3.04 ± 0.21 and 2.66 ± 0.18.
IVSQKQMSDRRENDMSPSNNVVPI [RAB11A] registered a protein stability index under setting [1] of 4.34 ± 0.13 and a protein stability index under setting [2] of 4.54 ± 0.14.
For IVWFSFEFVVRCFACPSQALFFKN [KCNA4] the same measures were 2.91 ± 0.1 and 2.72 ± 0.81.
For IYGPGNLSTNNNTLRDHFKGISSH [SLC2A12] the same measures were 2.95 ± 0.26 and 3 ± 0.14.
For IYRFLKLHPRGKNNFSPLHLAVDK [FEM1C] the same measures were 2.31 ± 0.45 and 2.25 ± 0.28.
Take KAQGHGAKGDNVYEFHLEFLDLVK [HACD3]: the protein stability index is, setting by setting: under setting [1], 2.37 ± 0.2; under setting [2], 2.46 ± 0.14.
On the same counts, the results for KDFANTIPGHGGIMDRFDCQYLMA [CDS2] are 2.69 ± 0.37 and 2.8 ± 0.26.
In turn, KDRMKSDHKRETERVVREALEKLR [ZMYND11] yielded a protein stability index under setting [1] of 3.18 ± 0.13 and a protein stability index under setting [2] of 3.58 ± 0.32.
Take KEAAEAIEAEGATAPLTELLHSRN [CTNNB1]: the protein stability index worked out at 5.38 ± 0.28 under setting [1] and 5.28 ± 0.11 under setting [2].
On the same counts, the results for KELEDMNQKLFDLRGKFKRPPLRR [TNNI2] are 3.86 ± 0.19 and 4.1 ± 0.42.
For KFQLNKYTGEIKISENLDYEETGF [PCDHGA10] the same measures were 2.6 ± 0.099 and 3.63 ± 0.36.
For KGFGFVTMTNYDEAAMAIASLNGY [ELAVL3] the same measures were 2.34 ± 0.13 and 2.37 ± 0.1.
As for KGTFSDVTFKLDDGAISAHKPLLI [RHOBTB1], the protein stability index turned out to be 2.47 ± 0.32 under setting [1] and 2.55 ± 0.33 under setting [2].
On the same counts, the results for KGVNRKLGRTGLYPSYKVREKIET [FUT8] are 3.2 ± 0.31 and 3.4 ± 0.22.
As for KHAVVNLINYQDDAELATRAIPEL [CTNNB1], the protein stability index under setting [1] was 3.66 ± 0.23 and the protein stability index under setting [2] came to 3.64 ± 0.38.
On the same counts, the results for KIDLENTLEQEQEALVNRLWKRMD [CCDC6] are 3.23 ± 0.41 and 3.78 ± 0.39.
Consider KILPWSPEKIGTRFLLYTNENPNN [PNLIPRP1], for which the protein stability index turned out to be 2.56 ± 0.28 under setting [1] and 2.89 ± 0.28 under setting [2].
On the same counts, the results for KKEMNKSDLNTNNLLFKPPVESHI [KMT2E] are 3.47 ± 0.39 and 4.12 ± 0.26.
KKFELVPSPPTSPPWGLGPGAGDP [MYCL]: the protein stability index is 4.1 ± 0.28 under setting [1] and 4.07 ± 0.21 under setting [2].
On the same counts, the results for KKIYCRICMAQIAYSGNTSNLSYH [ZBED1] are 2.19 ± 0.28 and 2.13 ± 0.3.
Regarding KKRRMGTYSLVPKKKTKVLKQRTV [EHMT1], the protein stability index under setting [1] was 3.27 ± 0.22 and the protein stability index under setting [2] amounted to 3.82 ± 0.4.
KLHKSQLSQALNGLSDRAKEAKEF [TRIM9] had a protein stability index under setting [1] of 4.11 ± 0.15 and a protein stability index under setting [2] of 4.17 ± 0.22.
For KLIKCDEIQVDSEEPVFEAVINWV [KLHL12] the same measures were 2.15 ± 0.26 and 2.4 ± 0.36.
The sequence KLLDELPIAKVMKDYLKHKFDDI [ASB7] came in with a protein stability index (treatment: DMSO, c terminus: native) of 2.37 ± 0.28 and a protein stability index (treatment: MLN4924 1 uM, 8 h, c terminus: native) of 2.66 ± 0.38.
For the sequence KLLNITADPMDWSPSNVQKWLLWT [SPDEF], the protein stability index by setting is: under setting [1], 2.34 ± 0.46; under setting [2], 2.22 ± 0.21.
As to KLLSVIVWMLMLLLAVPNIILTNQ [P2RY14], the protein stability index by setting is: under setting [1], 2.79 ± 0.47; under setting [2], 3.21 ± 0.41.
On the same counts, the results for KMNFIKTYPAHQNRVSAIIFSLAT [WDFY1] are 2.65 ± 0.51 and 2.5 ± 0.37.
For KMSNSFHGIRPPQLEQPEKMPVLK [RHOBTB3] the same measures were 4.33 ± 0.16 and 4.34 ± 0.068.
For KNFSNNSNLIRHQRIHAAERLCMG [ZNF263] the same measures were 2.86 ± 0.73 and 2.73 ± 0.35.
As to KNKKKKLKKKQKRQAELLEKRLQE [SRPK2], the protein stability index under setting [1] is 5.15 ± 0.42 and the protein stability index under setting [2] was determined as 5.06 ± 0.48.
For KNWVKELRQHGPPNIVVAIAGNKC [RAB22A] the same measures were 2.29 ± 0.23 and 2.47 ± 0.21.
For KPGRKTNQLQYMQNVVVKTLWKHQ [BRD3] the same measures were 2.25 ± 0.2 and 2.62 ± 0.21.
For KPHFESSTVKTETISFGSVSPGGV [EPB41L3] the same measures were 4.08 ± 0.23 and 4.09 ± 0.11.
Take KPLYVAFSFMYILVGLTVIGAFLN [KCNK9]: the protein stability index is, setting by setting: under setting [1], 2.79 ± 0.67; under setting [2], 2.97 ± 0.62.
On the same counts, the results for KPPMMPQAQPAIPRPNRLFLRQLR [C2CD2L] are 3.22 ± 0.17 and 3.43 ± 0.42.
On the same counts, the results for KPQEIVQVEIFSTNPDLYPVRRID [IQUB] are 2.82 ± 0.38 and 2.79 ± 0.4.
On the same counts, the results for KPYKCTLCGENFSHRSNLIRHQRI [ZNF263] are 2.74 ± 0.51 and 3.43 ± 0.39.
As to KQGQCTKGDKCKFSHDLTLERKCE [ZC3H15], the protein stability index under setting [1] was determined as 4.75 ± 0.15 and the protein stability index under setting [2] amounted to 4.6 ± 0.1.
For KQGYILNSDQTTCRIQDLCAMEDH [MATN2] the same measures were 3.35 ± 0.27 and 3.17 ± 0.39.
As to KQPPVTQSKTASDKSPSTVRDQGP [FBF1], the protein stability index worked out at 5.29 ± 0.17 under setting [1] and 5.27 ± 0.091 under setting [2].
As for KQPPWEFLQVLEPGARGLWKPPDI [SPAG8], the protein stability index under setting [1] came to 2.45 ± 0.089 and the protein stability index under setting [2] is 2.32 ± 0.23.
On to KQRSVCTWGKNKPGIGAVILKRFC [FAN1], for which the protein stability index was 1.99 ± 0.31 under setting [1] and 2.02 ± 0.15 under setting [2].
For KRALAEGAQIWCGEGVDKLSLPAR [ALDH8A1] the same measures were 3.58 ± 0.3 and 3.71 ± 0.17.
For KRFDESMQVFAKLGTDPTHVMGLY [VPS39] the same measures were 2.38 ± 0.25 and 2.69 ± 0.095.
In the case of KRNNFYIKIRPGEFEQFESTIGFK [EPB41L3], the protein stability index worked out at 2.12 ± 0.52 under setting [1] and 2.46 ± 0.24 under setting [2].
On the same counts, the results for KRSSLPRPSSILPPRRGVSGDRDE [MAP2] are 5.04 ± 0.24 and 5.16 ± 0.3.
Consider KRWQKNNWPKNSNGVTQKASAPTY [NANOGP8], for which the protein stability index is 3.39 ± 0.17 under setting [1] and 3.47 ± 0.21 under setting [2].
On the same counts, the results for KSAHQTHSSWTPPNAQYWSQFHSV [DNAJC4] are 2.74 ± 0.28 and 2.67 ± 0.18.
For KSKWDEEWDKNKSAFPFSDKLGEL [CLINT1] the same measures were 3.82 ± 0.31 and 3.85 ± 0.21.
On the same counts, the results for KSLDGVTNDRTASQGQWGRAWEVD [DHCR7] are 4.47 ± 0.11 and 4.465 ± 0.035.
On to KSNGFFHGISIPEPEDMETLEEKF [CDKL4], for which the protein stability index is, setting by setting: under setting [1], 4.5 ± 0.14; under setting [2], 4.56 ± 0.27.
On the same counts, the results for KTKEVQHNCQLHRISFCADDKTDK [GULP1] are 4.66 ± 0.36 and 4.71 ± 0.21.
KVEFPEARIYEETLNILLYEAQDG [KCTD10] gave a protein stability index under setting [1] of 2.77 ± 0.15 and a protein stability index under setting [2] of 2.94 ± 0.35.
For KVEFTEEEIKTWGTVFQELNKLYP [TPH1] the same measures were 2.77 ± 0.24 and 2.91 ± 0.34.
On the same counts, the results for KVENLTLKNHFQSVLEQLELQEKQ [TAF7L] are 3.54 ± 0.13 and 3.96 ± 0.094.
For KVLGRLRALSDTTEELTVIKSSLK [SLC2A12] the same measures were 2.58 ± 0.25 and 2.76 ± 0.28.
In the case of KVLHEDKQTREQLHSISDSVLFLQ [TRIM29], the protein stability index was found to be 3.46 ± 0.16 under setting [1] and 3.58 ± 0.27 under setting [2].
On the same counts, the results for KVPIAQDELALSLGYAASLEASVQ [C2CD2L] are 3.65 ± 0.33 and 3.64 ± 0.34.
For KVTDHATTALLHYQLPQMPDVVVR [MED27] the same measures were 3.07 ± 0.19 and 3.28 ± 0.24.
